Experimental data taken from paper PMC3248438, “Probing the SELEX Process with Next-Generation Sequencing”.

Target: Streptavidin (UniProt P22629 25-183)
Assay: SPR; kon 1.5e4 M-1 s-1, koff 2.2e-3 s-1; 1:1 Langmuir fit, chi2 0.535; 900 RU chip; Binding buffer 20 mM Tris, 140 mM NaCl, 5 mM MgCl2, 2 mM CaCl2, 2 mM KCl, 0.05% Tween 20, pH 7.4; SPR at 25 C, 30 ul/min; FLAA 1 h at room temperature
Conditions: protein: commercial; chain copies: 4

Sequence of Streptavidin (P22629 25-183): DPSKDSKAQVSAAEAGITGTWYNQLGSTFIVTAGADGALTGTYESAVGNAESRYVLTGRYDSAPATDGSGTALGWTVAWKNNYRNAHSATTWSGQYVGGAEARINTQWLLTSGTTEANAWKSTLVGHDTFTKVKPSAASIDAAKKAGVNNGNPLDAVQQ

In the case of ATCTCCGATTGCCCCACGACGCAGTGGTCGGAGTTACTTT (ssDNA) [R10#17], the Kd is reported as 140 nM.
